Results from patent US20240158497A1 (published 2024).

T1: Macaca Fascicularis GP130 extracellular domain expressed with a C-terminal myc-myc-hexahistidine tag (Macaca fascicularis, UniProt P40189 23-619 (human entry))
T1 construct: also called mfGP130-MMH; mfGP130-mmH
T1 chain: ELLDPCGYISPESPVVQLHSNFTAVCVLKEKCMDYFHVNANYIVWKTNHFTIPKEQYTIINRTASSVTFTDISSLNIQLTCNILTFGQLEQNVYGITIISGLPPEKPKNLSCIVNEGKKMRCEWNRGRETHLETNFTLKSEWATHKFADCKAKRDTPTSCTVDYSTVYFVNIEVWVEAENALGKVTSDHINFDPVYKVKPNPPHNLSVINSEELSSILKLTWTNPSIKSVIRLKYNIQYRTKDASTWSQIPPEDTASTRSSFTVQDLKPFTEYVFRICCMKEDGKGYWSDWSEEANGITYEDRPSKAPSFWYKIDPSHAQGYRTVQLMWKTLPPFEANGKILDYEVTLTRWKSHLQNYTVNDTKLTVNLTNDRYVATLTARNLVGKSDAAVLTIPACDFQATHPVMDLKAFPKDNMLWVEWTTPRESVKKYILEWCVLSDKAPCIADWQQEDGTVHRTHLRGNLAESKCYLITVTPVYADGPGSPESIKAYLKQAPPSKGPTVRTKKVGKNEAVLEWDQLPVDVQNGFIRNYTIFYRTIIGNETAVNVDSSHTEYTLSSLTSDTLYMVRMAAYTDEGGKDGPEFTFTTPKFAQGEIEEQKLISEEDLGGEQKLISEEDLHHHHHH


Experiments:
[1] = target: T1, Macaca Fascicularis GP130 extracellular …; test: SPR, bsAb captured by anti-hFc, 37C
Method: (§1) Equilibrium dissociation constants (KD values) for LEPR and GP130 binding to purified anti-LEPR/GP130 bispecific antibodies were determined using a real-time surface plasmon resonance biosensor using a Biacore 4000 instrument. All binding studies were performed in 10 mM HEPES, 150 mM NaCl, 3 mM EDTA, and 0.05% v/v Surfactant Tween-20, pH 7.4 (HBS-ET) running buffer at 25° C. and 37° C. The Biacore sensor surface was first derivatized by amine coupling with a monoclonal mouse anti-human Fc antibody (GE, #BR-1008-39) to capture anti-LEPR/GP130 bispecific antibodies. […] Different concentrations of LEPR or GP130 reagents were first prepared in HBS-ET running buffer (100 nM-3.7 nM; 3-fold serial dilution) and were injected over anti-human Fc captured anti-LEPR/GP130 bispecific antibody surface for 4 minutes at a flow rate of 30 μL/minute, while the dissociation of bispecific antibody bound LEPR or GP130 reagent was monitored for 10 minutes in HBS-ET running buffer. Kinetic association (kₐ) and dissociation (kd) rate constants were determined by fitting the real-time binding sensorgrams to a 1:1 binding model with mass transport limitation using Scrubber 2.0c curve-fitting software. Binding dissociation equilibrium constants (KD) and dissociative half-lives (t ½) were calculated from the kinetic rate constants as: […]

[2] = target: T2, human GP130 extracellular domain expressed with a C-terminal myc-myc-hexahistidine tag (human, UniProt P40189 23-619); test: SPR, bsAb captured by anti-hFc, 37C
T2 construct: also called hGP130-MMH; hGP130-mmH
Method: as §1

[3] = target: T1, Macaca Fascicularis GP130 extracellular …; test: SPR, bsAb captured by anti-hFc, 25C
Method: as §1

[4] = target: T2, human GP130 extracellular domain …; test: SPR, bsAb captured by anti-hFc, 25C
Method: as §1

Binder	100 nM mfGP130-MMH Bound (RU) [1] [RU]	Kd [1] [nM]	koff [1] [s⁻¹]	kon [1] [M⁻¹ s⁻¹]	t½ [1] [min]	100 nM hGP130-MMH Bound (RU) [2] [RU]	Kd [2] [nM]	koff [2] [s⁻¹]	kon [2] [M⁻¹ s⁻¹]	t½ [2] [min]	100 nM mfGP130-MMH Bound (RU) [3] [RU]	Kd [3] [nM]	koff [3] [s⁻¹]	kon [3] [M⁻¹ s⁻¹]	t½ [3] [min]	100 nM hGP130-MMH Bound (RU) [4] [RU]	Kd [4] [nM]	koff [4] [s⁻¹]	kon [4] [M⁻¹ s⁻¹]	t½ [4] [min]	further results
bsAb19143D (bispecific antibody, V domains shown, LEPR x GP130 bispecific with common light chain) VH 1: QVQLVESGGGVVQPGRSLRLSCTASGFTFSSYAMYWVRQAPGKGLEWVSVIYYDGSYKYYADSVKGRFTISRDNSKNTLYLQMDSLRAEDTAVYYCASYNWNYWYFDFWGRGTLVTVSS VH 2: QLQLQESGPGLVKPSETLSLICTVSGGSISSNNYYWGWIRQPPGKGLEWIGNLYGSGSTYYNPSLKSRVTISVDTSKNQFSLKLSFVTAADTAVYHCARWDTNGGAFDIWGQGTMVTVSS VL: not shown	14	57.9	0.00396	68300	2.9	27	44.6	0.00212	47600	5	10	43	0.0013	30100	9	16	20.2	0.000647	32000	18	
bsAb19144D (bispecific antibody, V domains shown, LEPR x GP130 bispecific with common light chain) VH 1: QVQLVESGGGVVQPGRSLRLSCTASGFTFSSYAMYWVRQAPGKGLEWVSVIYYDGSYKYYADSVKGRFTISRDNSKNTLYLQMDSLRAEDTAVYYCASYNWNYWYFDFWGRGTLVTVSS VH 2: QVQLVQSGAEVKKPGASVKVSCKASGYTFTSLGISWVRQAPGQGLEWMGWISAYSGNRDYAQKFQGRVTMTTDTSTSTAYMELRSLRSDDTAVYYCARSLRFDYWGQGTLVTVSS VL: not shown	41	10.9	0.00183	168000	6	42	10.6	0.00188	177000	6	27	13.4	0.000762	56700	15	27	12.1	0.000777	64300	15	
bsAb19152D (bispecific antibody, V domains shown, LEPR x GP130 bispecific with common light chain) VH 1: QVQLVESGGGVVQPGRSLRLSCTASGFTFSSYAMYWVRQAPGKGLEWVSVIYYDGSYKYYADSVKGRFTISRDNSKNTLYLQMDSLRAEDTAVYYCASYNWNYWYFDFWGRGTLVTVSS VH 2: EVQLVQSGAEVKKPGESLKISCKGSGYSFTSYWIDWVRQMPGKGLEWMGIIYPDDSDTRYSPSFQGQVTMSVDKSISTAYLQWSSLKASDTAIYYCARHERGIVEAGTDYYYYYGMDVWGQGTTVTVSS VL: not shown	51	51.6	0.0177	342000	0.7	28	89.1	0.0363	407000	0.3	52	18.8	0.00553	295000	2.1	35	57.4	0.0113	196000	1	
bsAb19150D (bispecific antibody, V domains shown, LEPR x GP130 bispecific with common light chain) VH 1: QVQLVESGGGVVQPGRSLRLSCTASGFTFSSYAMYWVRQAPGKGLEWVSVIYYDGSYKYYADSVKGRFTISRDNSKNTLYLQMDSLRAEDTAVYYCASYNWNYWYFDFWGRGTLVTVSS VH 2: EVQLVESGGGLVQSGGSLRLSCAASGFTFSRYEMNWVRQAPGKGLEWVAYISNTGTTRDYSDSVKGRFTISRDNAKNSLYLQMSSLRVEDTAVYYCVREKFSGTSDWFDPWGQGTLVTVSS VL: not shown	46	19.3	0.00773	401000	1.5	52	15.4	0.00665	433000	1.7	44	16.8	0.00519	308000	2.2	47	14	0.0048	342000	2.4	
bsAb19153D (bispecific antibody, V domains shown, LEPR x GP130 bispecific with common light chain) VH 1: QVQLVESGGGVVQPGRSLRLSCTASGFTFSSYAMYWVRQAPGKGLEWVSVIYYDGSYKYYADSVKGRFTISRDNSKNTLYLQMDSLRAEDTAVYYCASYNWNYWYFDFWGRGTLVTVSS VH 2: QVQLVQSGAEVMKPGASVKVSCRASGYTFSSYDINWVRQAPGQGLEWMGWISTATGNTNYPQKVQGRVTMTTDTSTNTAYMELRSLRSDDTAVYYCTREGNSKGWLDPWGQGTLVTVSS VL: not shown	32	4.33	0.00123	284000	9	33	3.95	0.00126	319000	9	23	1.73	0.000396	229000	29	24	1.62	0.000419	258000	28	
bsAb19146D (bispecific antibody, V domains shown, LEPR x GP130 bispecific with common light chain) VH 1: QVQLVESGGGVVQPGRSLRLSCTASGFTFSSYAMYWVRQAPGKGLEWVSVIYYDGSYKYYADSVKGRFTISRDNSKNTLYLQMDSLRAEDTAVYYCASYNWNYWYFDFWGRGTLVTVSS VH 2: QVQLVQSGPEVKKPGSSVKVSCKASGGTIDRNEITWVRQAPGQGLEWMGVIIPILGEAHYERKFQGRLTITMDESTSTAYMELSNLRSEDTAVYYCARERAARGYLDYWGQGTLVTVSS VL: not shown	53	0.959	0.000626	653000	18	53	0.901	0.000641	712000	18	31	0.513	0.000258	502000	45	31	0.448	0.000273	609000	42	
bsAb19145D (bispecific antibody, V domains shown, LEPR x GP130 bispecific with common light chain) VH 1: QVQLVESGGGVVQPGRSLRLSCTASGFTFSSYAMYWVRQAPGKGLEWVSVIYYDGSYKYYADSVKGRFTISRDNSKNTLYLQMDSLRAEDTAVYYCASYNWNYWYFDFWGRGTLVTVSS VH 2: EVQLVESGGGLVQPGRSLRLSCAASGFTLDDFAMHWVRQAPGKGLEWVSGISWNSGNIGYADSVKGRFTISRDNARNSLYLQMNSLRAEDTALYYCTSGYYLYYAMDVWGQGTTVTVSS VL: not shown	29	37.6	0.00221	58800	5	30	32	0.00222	69200	5	18	17.4	0.000576	33100	20	19	17.5	0.000598	34100	19	
bsAb19151D (bispecific antibody, V domains shown, LEPR x GP130 bispecific with common light chain) VH 1: QVQLVESGGGVVQPGRSLRLSCTASGFTFSSYAMYWVRQAPGKGLEWVSVIYYDGSYKYYADSVKGRFTISRDNSKNTLYLQMDSLRAEDTAVYYCASYNWNYWYFDFWGRGTLVTVSS VH 2: EVQLVESGGGLVQPGGSLRLSCAASGFTFSSYAMNWVRQAPGKGLEWVSAISGSGDSTYYTDSVKGRFTISRDNSKNTLYLQMNTLRAEDTAVYYCAKEEIVMLVGATPGWFDPWGQGTLVTVSS VL: not shown	6					16	16.6	0.000373	22400	31	3					9	10.5	0.000221	21100	52	binding result [3]: no binding (tested: 100 nM)
